Each block holds one binder with its values, some of them ahead of it.
How the values were obtained:
[1] = target: T1, mouse leptin receptor-Fc chimera (mouse; human, UniProt P48356 22-839); assay: SPR (Biacore 3000), ObR-Fc captured on protein G chip, 1:1 model
T1 construct: extracellular domain; Bought from R&D Systems; Captured on a protein G sensor chip through its Fc; also called ObR-Fc; chimera leptin receptor; not shown: human Fc fragment, printed as 'human protein G Fc fragment'
T1 sequence (looked up): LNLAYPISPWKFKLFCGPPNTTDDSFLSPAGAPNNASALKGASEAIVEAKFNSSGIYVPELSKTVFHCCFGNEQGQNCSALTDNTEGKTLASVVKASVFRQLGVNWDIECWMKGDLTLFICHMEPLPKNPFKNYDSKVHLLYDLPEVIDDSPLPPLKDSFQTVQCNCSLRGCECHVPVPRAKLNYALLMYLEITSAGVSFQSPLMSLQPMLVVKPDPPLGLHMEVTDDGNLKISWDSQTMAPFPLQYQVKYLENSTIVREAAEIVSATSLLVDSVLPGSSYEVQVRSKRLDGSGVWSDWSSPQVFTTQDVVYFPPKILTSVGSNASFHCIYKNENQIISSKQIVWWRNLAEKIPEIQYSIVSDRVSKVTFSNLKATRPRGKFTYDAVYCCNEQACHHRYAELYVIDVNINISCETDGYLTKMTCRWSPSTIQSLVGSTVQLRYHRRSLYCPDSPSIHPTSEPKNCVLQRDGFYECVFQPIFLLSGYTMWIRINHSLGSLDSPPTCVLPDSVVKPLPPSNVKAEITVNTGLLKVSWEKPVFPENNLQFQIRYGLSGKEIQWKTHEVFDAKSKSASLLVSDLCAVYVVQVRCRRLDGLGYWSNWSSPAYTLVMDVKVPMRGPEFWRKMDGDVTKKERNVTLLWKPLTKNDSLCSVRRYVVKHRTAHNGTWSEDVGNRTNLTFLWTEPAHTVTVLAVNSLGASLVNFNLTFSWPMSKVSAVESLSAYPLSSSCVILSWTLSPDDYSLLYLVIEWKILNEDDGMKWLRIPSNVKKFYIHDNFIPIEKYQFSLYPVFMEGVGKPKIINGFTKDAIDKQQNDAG
Protocol: The binding affinity of leptin and its analogs was measured by surface plasma resonance (SPR) in Biacore® 3000 instrument (GE Healthcare, Piscataway, N.J.), using a method reported for leptin (Mistrik et al. (2004) Anal. Biochem., 327:271-7). Carboxymethyl dextran chip (CMS), N-hydroxysuccinimide (NHS), 1-ethyl-3-(3-dimethylaminopropyl) carbodiimide (EDC), ethanolamine-HCl, HBS-EP buffer (10 mM HEPES, 150 mM NaCl, 3 mM EDTA, 0.005% surfactant P20, pH 7.4) and protein G were all purchased from GE Healthcare. To prepare the sensor chip, protein G was immobilized on CMS (Channel A and B) by consequent injection of 1) 115 μL NHS/EDC (1:1, v/v) (to activate dextran surface); 2) 60 μL protein G (200 μg/mL, 10 mM sodium acetate buffer, pH 4.0) (to bound the surface at 2000-3000 resonance units (RU)), and 3) 75 μl of 1 M ethanolamine hydrochloride, pH 8.5 (to deactivate NHS-ester and remove electrostatically bound protein). CMS surface response was recorded by first, immobilization of ObR-Fc (0.5 μg/mL, 15 μL in HBS-EP, 5 μL/min flow rate) in channel A following 1800 s washing (to capture 100-300 RU of ObR-Fc); second, capture of leptin or leptin-Pluronic® conjugates (0-300 nM, 100 μL in HBS-EP, flow rate 20 μL/min) and dissociation (900 s) in channel A (ObR-Fc surface) and B (protein G surface); third, regeneration of a fully active protein G surface by 5 μL glycine (10 mM, pH 2.0). The data (sensorgrams in channel A) were corrected by non-specific protein G surface binding (sensorgrams in channel B) and baseline draft (sensorgrams of HBS-EP injection in channel A) which might occur due to a slow dissociation of between ObR-Fc and protein G and then fitted to a 1:1 binding model using BIA evaluation software.
TABLE 3 Kinetic constants for leptin and leptin-P85 conjugates and leptin receptor interaction. The association and dissociation rate constants kₐ and kd were determined as global fitting parameters for a 1:1 binding model. The kinetics of the interaction with leptin, the mixture of leptin and P85, Lep-(ss)-P85(1) and its reduced form, Lep-(ss)-P85(2.1) and its reduced form, Lep-(nc)-P85(2) and purified Lep-(ss)-P85(2.3) from HIC, 33 min were analyzed. The equilibrium dissociation constant KD was determined as kd/kₐ. Numbers represent averaged values from three independent measurements on the same ObR-Fc surface.

[2] = target: T1, mouse leptin receptor-Fc chimera; assay: SPR, ObR-Fc captured on protein G CM5 chip, 1:1 model (Example 3)
Protocol: […] Binding affinity of leptin or leptin-POx with leptin receptor was determined by surface plasma resonance (SPR). Protein G was immobilized on CM5 sensor chip using following procedure: 1) inject 115 μL NHS/EDC mixed solution (1:1, v/v) to activate dextran surface; 2) inject 60 μL protein G (200 μg/mL in 10 mM sodium acetate buffer, pH 4.0) to bind with the activated sensor surface; 3) inject 75 μL of 1 M ethanolamine hydrochloride, pH 8.5 to deactivate NHS-ester and remove non-specifically bound protein. […] The sensorgram in channel A was corrected by non-specific surface binding (sensorgram in channel B) and baseline draft (sensorgram of HBS-EP buffer injection in channel A) and then fitted with a 1:1 binding model as provided by BIA evaluation software. The rate constant kₐ and kd, and equilibrium association constant (KA) and dissociation constant (KD) are determined.

[3] = target: T1, mouse leptin receptor-Fc chimera; assay: SPR (Biacore 3000), ObR-Fc captured on protein G chip, 1:1 model, KD = kd/ka
Protocol: (§1) The binding affinity of leptin and its analogs was measured by surface plasma resonance (SPR) in Biacore® 3000 instrument (GE Healthcare, Piscataway, N.J.), using a method reported for leptin (Mistrik et al. (2004) Anal. Biochem., 327:271-7). Carboxymethyl dextran chip (CMS), N-hydroxysuccinimide (NHS), 1-ethyl-3-(3-dimethylaminopropyl) carbodiimide (EDC), ethanolamine-HCl, HBS-EP buffer (10 mM HEPES, 150 mM NaCl, 3 mM EDTA, 0.005% surfactant P20, pH 7.4) and protein G were all purchased from GE Healthcare. […] CMS surface response was recorded by first, immobilization of ObR-Fc (0.5 μg/mL, 15 μL in HBS-EP, 5 μL/min flow rate) in channel A following 1800 s washing (to capture 100-300 RU of ObR-Fc); second, capture of leptin or leptin-Pluronic® conjugates (0-300 nM, 100 μL in HBS-EP, flow rate 20 μL/min) and dissociation (900 s) in channel A (ObR-Fc surface) and B (protein G surface); third, regeneration of a fully active protein G surface by 5 μL glycine (10 mM, pH 2.0). […]
(§2) TABLE 3 Kinetic constants for leptin and leptin-P85 conjugates and leptin receptor interaction. The association and dissociation rate constants kₐ and kd were determined as global fitting parameters for a 1:1 binding model. […] The equilibrium dissociation constant KD was determined as kd/kₐ. […]

[4] = target: T1, mouse leptin receptor-Fc chimera; assay: SPR, ObR-Fc captured on protein G chip; leptin in 1:1 mixture with free Pluronic P85
Text: Next, the binding of the leptin-Pluronic® conjugates with the chimera leptin receptor (ObR-Fc) was studied. ObR-Fc contains the human […] Fc fragment and the mouse ObR N-terminus that shares the same sequence as the extracellular domains of the putative leptin transporter at the BBB (ObRa) and the leptin receptor (ObRb) expressed in the brain. The Fc fragment of ObR-Fc was used to reversibly bind to protein G that was pre-immobilized onto the sensor chip. The ObR N-terminus of ObR-Fc adsorbed onto the sensor chip was used for sample detection. The SPR association and dissociation profiles were recorded for native leptin, a mixture of leptin and P85, Lep-(ss)-P85(1), Lep-(ss)-P85(2.1), Lep-(ss)-P85(2.3) (fractions purified by HIC and collected at 33 min) and Lep-(nc)-P85(2) (FIG. 8 and Table 3). […] The KD values for the N-terminal modified Lep-(nc)-P85(2), which also had low modification degree, were similar to those observed for Lep-(ss)-P85(2.1) without HIC purification.

[5] = target: T1, mouse leptin receptor-Fc chimera; assay: SPR, ObR-Fc captured on protein G chip, 1:1 model; leptin in 1:1 mixture with free Pluronic P85
Protocol: as §1, §2

[6] = target: T1, mouse leptin receptor-Fc chimera; assay: SPR, ObR-Fc captured on protein G chip, 1:1 model; leptin in 1:1 mixture with free Pluronic P85; leptin mixed with free P85
Protocol: as §1, §2

B4: Lep-(ss)-P85(2.1) (ligand, mouse, UniProt P41160 22-167, looked up)
chain: VPIQKVQDDTKTLIKTIVTRINDISHTQSVSAKQRVTGLDFIPGLHPILSLSKMDQTLAVYQQVLTSLPSQNVLQIANDLENLRDLLHLLAFSKSCSLPQTSGLQKPESLDGVLEASLYSTEVVALSRLQGSLQDILQQLDVSPEC
modifications: Pluronic P85 chains on lysine amino groups through the DSP (disulfide) linker; lower degree of modification; positions not determined
notes: Mixture that includes unmodified leptin
Kd [1]: 3.2 nM | koff [1]: 0.000355 s⁻¹ | kon [1]: 113000 M⁻¹ s⁻¹

B5: Lep-(ss)-P85(2.1) reduced (ligand, mouse, UniProt P41160 22-167, looked up)
chain: B4 chain
modifications: Pluronic P85 chains on lysine amino groups through the DSP linker, partly cleaved by 6 mM L-glutathione
notes: Lep-(ss)-P85(2.1) dialysed against 6 mM L-glutathione in PBS with 20% ethanol; also called reduced form of Lep-(ss)-P85(2.1)
Kd [1]: 2.09 nM | koff [1]: 0.000407 s⁻¹ | kon [1]: 195000 M⁻¹ s⁻¹

B6: Lep-(nc)-P85(2) (ligand, mouse, UniProt P41160 22-167, looked up)
chain: B4 chain
modifications: one Pluronic P85 chain on the N-terminal alpha amino group by reductive amination with mono-aldehyde-P85
notes: the rest is unmodified leptin; also called N-terminal modified Lep-(nc)-P85(2)
Kd [1]: 3.8 nM | koff [1]: 0.000247 s⁻¹ | kon [1]: 77000 M⁻¹ s⁻¹

B7: Lep-(ss)-P85(1) (ligand, mouse, UniProt P41160 22-167, looked up)
chain: B4 chain
modifications: Pluronic P85 chains on lysine amino groups through the DSP (disulfide) linker; highly modified; positions not determined
notes: Mixture of unmodified leptin and leptin with 1 to several P85 chains
Kd [1]: 57.1 nM | koff [1]: 0.000642 s⁻¹ | kon [1]: 12000 M⁻¹ s⁻¹

B8: Lep-(ss)-P85(1) reduced (ligand, mouse, UniProt P41160 22-167, looked up)
chain: B4 chain
modifications: Pluronic P85 chains on lysine amino groups through the DSP linker, partly cleaved by 6 mM L-glutathione; a linker remainder is left on cleaved sites
notes: Lep-(ss)-P85(1) dialysed against 6 mM L-glutathione in PBS with 20% ethanol; Some but not all P85 chains were cleaved; also called reduced form of Lep-(ss)-P85(1)
Kd [1]: 16.4 nM | koff [1]: 0.00079 s⁻¹ | kon [1]: 49000 M⁻¹ s⁻¹

Next, values leading:

koff [1]: 0.000208 s⁻¹ | kon [1]: 2.09e+06 M⁻¹ s⁻¹ | Ka [2]: 1.1e+09 M⁻¹ | Kd [2]: 0.96 nM | koff [2]: 0.00051 s⁻¹ | kon [2]: 530000 M⁻¹ s⁻¹ | Kd [3]: 0.1 nM | fold decrease of binding affinity against native leptin alone [4]: ~3 fold | koff [5]: 0.000368 s⁻¹ | kon [5]: 1.09e+06 M⁻¹ s⁻¹ | Kd [6]: 0.337 nM
B1: Mouse leptin (ligand, UniProt P41160 22-167, looked up)
chain: B4 chain
notes: Also tested as a non-covalent 1:1 mixture with free Pluronic P85 ('Leptin + P85'); Those rows use this molecule and name the mixture under assay; The preparation held monomer and dimer on SDS-PAGE; also called native leptin; mu-leptin

Ka [2]: 1.8e+07 M⁻¹ | Kd [2]: 56 nM | koff [2]: 0.00073 s⁻¹ | kon [2]: 13000 M⁻¹ s⁻¹
B2: Leptin-POx conjugate (ligand, UniProt P41160 22-167, looked up)
chain: B4 chain
modifications: P(MeOx50-b-BuOx20) poly(2-oxazoline) chains on amino groups through the DSP linker; modification degree 6.0 per leptin monomer by TNBS assay
notes: SEC-purified mixture of forms with different numbers of POx chains, with some unmodified monomer and dimer; also called leptin-P(MeOx-b-BuOx); leptipox

Kd [1]: 1.21 nM | koff [1]: 0.000292 s⁻¹ | kon [1]: 311000 M⁻¹ s⁻¹
B3: Lep-(ss)-P85(2.3), 33 min (ligand, mouse, UniProt P41160 22-167, looked up)
chain: B4 chain
modifications: one Pluronic P85 chain on a lysine amino group through the DSP (disulfide) linker; position not determined
notes: HIC fraction collected at 33 min, said to contain leptin modified with one P85 chain; also called Lep-(ss)-P85(2.3) purified by HIC (33 minutes); HIC-purified Lep-(ss)-P85(2.3)

— patent publication US20150306181A1 (BOARD OF REGENTS OF THE UNIVERSITY OF NEBRASKA, published 2015)
